Assay [1] deals with T1, hexapeptide Gly-Pro-Gly-Arg-Ala-Phe (HIV strain MN).
T1 peptide: GPGRAF
In words: EIA with overlapped peptides on a solid phase (FIG. 7).

For assay [2], the target named is T2, hexapeptide Ile-Gly-Pro-Gly-Arg-Ala (HIV strain MN).
T2 peptide: IGPGRA
Described as above.

Assay [3] concerns the target synthetic PND peptide SP-11 (HIV strain NI54-2) (HIV strain NI54-2). In words: EIA, peptide immobilized on plate (FIG. 4).
Assay [4] concerns the target synthetic peptide SP-30 (5 repeats of GPGR). The experiment in a line: EIA, peptide immobilized on plate (FIG. 4).
Assay [5] addresses synthetic PND peptide SP-12 (HIV strain NI53) (HIV strain NI53). The experiment in a line: EIA, peptide immobilized on plate (FIG. 4).
The target in assay [6] is T3, synthetic PND peptide SP-1 (HIV strain MN) (HIV strain MN).
T3 peptide: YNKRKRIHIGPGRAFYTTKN
The experiment in a line: EIA, peptide immobilized on plate (FIG. 4).

Assay [7] concerns the target synthetic PND peptide SP-6 (HIV strain NI16-1) (HIV strain NI16-1). In words: EIA, peptide immobilized on plate (FIG. 4).
The target in assay [8] is synthetic PND peptide SP-20 (HIV strain NI63-2) (HIV strain NI63-2). In words: EIA, peptide immobilized on plate (FIG. 4).
In assay [9] the target is synthetic PND peptide SP-9 (HIV strain NI23) (HIV strain NI23). The experiment in a line: EIA, peptide immobilized on plate (FIG. 4).
A further assay addresses gp120 of HIV-MN strain (HIV strain MN, UniProt P05877). In words: cell-based or functional assay.
The target of assay [10] is decapeptide […] derived from NI53 (HIV strain NI53). The experiment in a line: EIA, peptide synthesized on a polyethylene rod (FIG. 6).
Assay [11] addresses T4, decapeptide IHIGPGRAFY derived from HIV-MN (HIV strain MN).
T4 peptide: IHIGPGRAFY
The description is as above.

B1: monoclonal antibody C25 (antibody, V domains shown)
VH: QVQLQQSGAELVRPGTSVKMFCKAAGYTFTNSWIGWFRQRPGHGLEWIGDIYPGGGYTNYNEIFKGKATLTADTSSSTAYMQLSSLTSEDSAIYYCSRGIPGYAMDYWGQGTSVTVSS
VL: DIVMTQSPSSLTVTAGEKVTMSCKSSQSLLNSGDQKNYLTWYQQKPGQPPKLLIYWASTGESGVPDRFTGSGSETDFTLTISSVQAEDLAVYYCQNDYSYPWTFGGGTKLEIK
In the case of B1, the binding result in [1], in assay [2], in assay [3], in assay [4], in assay [5] and in [6] was “binds” in each case. Also, the binding result in assay [7], in assay [8], in [9], in assay [10] and in assay [11] was “binds” each time. Besides, in the assay with gp120 of HIV-MN strain, the “minimum effective concentration inhibiting viral infection by 100%” value was determined as 1 µg/mL.

B2: chimeric C25 antibody (CC25) (antibody, V domains shown)
VH: QVQLQQSGAELVRPGTSVKMFCKAAGYTFTNSWIGWFRQRPGHGLEWIGDIYPGGGYTNYNEIFKGKATLTADTSSSTAYMQLSSLTSEDSAIYYCSRGIPGYAMDYWGQGTSVTVSS
VL: DIVMTQSPSSLTVTAGEKVTMSCKSSQSLLNSGDQKNYLTWYQQKPGQPPKLLIYWASTGESGVPDRFTGSGSETDFTLTISSVQAEDLAVYYCQNDYSYPWTFGGGTKLEIK
For B2, the “minimum effective concentration inhibiting viral infection by 100%” value with gp120 of HIV-MN strain was determined as 1 µg/mL.

B3: humanized C25 antibody (RC25) (antibody, V domains shown)
VH: QVQLVQSGAEVKKPGASVKVSCKASGYTFTNSWIGWFRQAPGQGLEWIGDIYPGGGYTNYNEIFKGKATMTADTSTNTAYMELSSLRSEDTAVYYCSRGIPGYAMDYWGQGTLVTVSS
VL: DIQMTQSPSSLSASVGDRVTMSCKSSQSLLNSGDQKNYLTWYQQKPGKAPKLLIYWASTGESGVPSRFSGSGSGTDFTFTISSLQPEDIATYYCQNDYSYPWTFGQGTKVEIK
Consider B3, for which the “minimum effective concentration inhibiting viral infection by 100%” value with gp120 of HIV-MN strain is 1 µg/mL.

The values above are taken from patent US6114143, “Anti-HIV monoclonal antibody” (Juridical Foundation The Chemo-Sero-Therapeutic Research …, dated 2000).
